Source: publication PMC3678298, “Catalytic preference of Salmonella typhimurium LT2 sialidase for N-acetylneuraminic acid residues over N-glycolylneuraminic acid residues^” (FEBS Open Bio, 2013)

System: Cc1cc(=O)oc2cc(O[C@@]3(C(=O)O)C[C@H](O)[C@@H](NC(=O)CO)[C@H]([C@H](O)[C@H](O)CO)O3)ccc12
Test: purified protein
Settings: 80 mM sodium acetate pH 6.0, 80 mM NaCl, 0.8 mg/ml BSA, 37 °C, 10 mU/ml enzyme
Description: 4MU fluorescence; Lineweaver-Burk on STSA (Salmonella typhimurium LT2 sialidase)

STSA (Salmonella typhimurium LT2 sialidase) (Salmonella enterica subsp. enterica serovar Typhimurium str. LT2)
Km: 3.10 mM | kcat: 40 s⁻¹ | kcat/Km: 13100 M⁻¹ s⁻¹
